In patent publication US20240270857A1 (CHIA TAI TIANQING PHARMACEUTICAL GROUP, published 2024):

T1: CynoIL36R-ECD mFc recombinant protein (cynomolgus monkey)
T1 construct: Made in ExpiCHO, purified on Protein A; also called cynomolgus IL-36R extracellular region with mouse antibody heavy chain Fc
T1 chain: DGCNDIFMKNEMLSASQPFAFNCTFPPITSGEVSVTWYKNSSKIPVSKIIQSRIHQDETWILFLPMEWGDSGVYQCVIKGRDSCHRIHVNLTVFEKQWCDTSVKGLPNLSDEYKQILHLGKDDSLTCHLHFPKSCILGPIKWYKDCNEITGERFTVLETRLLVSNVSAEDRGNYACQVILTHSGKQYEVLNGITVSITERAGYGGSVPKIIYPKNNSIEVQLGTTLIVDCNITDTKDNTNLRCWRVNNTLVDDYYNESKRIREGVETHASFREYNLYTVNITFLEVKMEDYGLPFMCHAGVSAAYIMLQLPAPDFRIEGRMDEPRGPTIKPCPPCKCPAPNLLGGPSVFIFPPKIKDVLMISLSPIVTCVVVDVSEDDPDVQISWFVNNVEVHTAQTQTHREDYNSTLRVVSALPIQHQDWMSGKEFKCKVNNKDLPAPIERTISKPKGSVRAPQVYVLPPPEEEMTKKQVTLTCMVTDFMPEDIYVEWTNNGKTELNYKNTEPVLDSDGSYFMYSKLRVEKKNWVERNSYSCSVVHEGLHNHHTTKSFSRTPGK

T2: IL-36R naturally expressed on OVCAR8 cells and on normal human epidermal keratinocytes (NHK cells) (human, UniProt Q9HB29 20-575)
T2 sequence (looked up): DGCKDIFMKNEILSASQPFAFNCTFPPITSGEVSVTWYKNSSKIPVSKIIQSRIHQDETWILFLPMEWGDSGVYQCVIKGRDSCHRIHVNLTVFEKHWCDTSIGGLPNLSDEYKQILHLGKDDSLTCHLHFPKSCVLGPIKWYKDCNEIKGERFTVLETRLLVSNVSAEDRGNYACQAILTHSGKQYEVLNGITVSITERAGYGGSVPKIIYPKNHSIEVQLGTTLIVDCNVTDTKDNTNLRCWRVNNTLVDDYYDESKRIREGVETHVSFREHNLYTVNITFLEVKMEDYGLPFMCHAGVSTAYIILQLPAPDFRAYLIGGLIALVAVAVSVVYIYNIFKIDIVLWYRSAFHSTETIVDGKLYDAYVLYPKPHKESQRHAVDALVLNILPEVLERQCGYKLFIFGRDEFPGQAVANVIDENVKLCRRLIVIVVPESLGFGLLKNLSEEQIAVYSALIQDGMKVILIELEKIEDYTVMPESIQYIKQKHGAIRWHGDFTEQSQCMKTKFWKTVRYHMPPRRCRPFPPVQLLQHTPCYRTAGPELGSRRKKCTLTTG

T3: human IL-36R overexpressed on 293T-hIL36R-NFκB cells (human, UniProt Q9HB29 20-575)
T3 sequence: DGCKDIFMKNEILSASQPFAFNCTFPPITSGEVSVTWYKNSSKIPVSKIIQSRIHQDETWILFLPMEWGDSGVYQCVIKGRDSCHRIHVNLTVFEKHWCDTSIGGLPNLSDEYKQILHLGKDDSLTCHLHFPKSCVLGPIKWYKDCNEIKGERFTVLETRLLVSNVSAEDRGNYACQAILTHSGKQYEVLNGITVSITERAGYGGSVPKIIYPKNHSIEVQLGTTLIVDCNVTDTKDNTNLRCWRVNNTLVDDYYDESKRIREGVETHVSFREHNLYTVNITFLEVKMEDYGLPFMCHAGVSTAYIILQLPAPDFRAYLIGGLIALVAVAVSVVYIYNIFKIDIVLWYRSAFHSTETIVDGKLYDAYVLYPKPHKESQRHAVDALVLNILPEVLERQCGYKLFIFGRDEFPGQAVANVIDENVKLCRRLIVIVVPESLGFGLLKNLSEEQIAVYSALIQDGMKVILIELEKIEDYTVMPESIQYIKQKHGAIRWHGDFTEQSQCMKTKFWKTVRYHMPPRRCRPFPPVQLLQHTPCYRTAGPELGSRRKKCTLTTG

T4: Human IL-1Rrp2/IL-1R6 protein, His Tag (ACROBiosystems, IL2-H52H6) (human, UniProt Q9HB29 20-335)
T4 construct: Bought protein; the soluble protein is likely only the extracellular part; also called hIL-36R; human IL36R antigen; not shown: His tag
T4 sequence: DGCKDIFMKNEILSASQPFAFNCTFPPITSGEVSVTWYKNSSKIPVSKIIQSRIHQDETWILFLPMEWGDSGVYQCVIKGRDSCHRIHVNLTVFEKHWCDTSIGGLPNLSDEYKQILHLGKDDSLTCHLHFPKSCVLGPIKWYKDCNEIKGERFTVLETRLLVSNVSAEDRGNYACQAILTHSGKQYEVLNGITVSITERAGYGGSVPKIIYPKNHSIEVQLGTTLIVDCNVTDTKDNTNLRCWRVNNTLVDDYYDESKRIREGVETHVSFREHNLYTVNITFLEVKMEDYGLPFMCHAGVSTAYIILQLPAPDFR


Legend:
[1] = molecular target: T1, CynoIL36R-ECD mFc recombinant protein; assay: ELISA, plate coated with CynoIL36R-ECD mFc, HRP-protein A/G, OD450
Method: (§1) The binding activity of anti-IL-36R antibodies to IL-36R was analyzed by ELISA using human IL-1Rrp2/IL-1R6 protein, His Tag (ACROBiosystems, IL2-H52H6) and CynoIL36R-ECD mFc (for detection of chimeric and humanized antibodies), and hIL36R-ECD hFc and CynoIL36R-ECD hFc protein (for detection of hybridoma antibodies) as antigens. A 96-well plate (Costar, 9018) was coated with 2 μg/mL antigen at 100 μL/well and incubated overnight at 4° C. After the 96-well plate was washed with a washing buffer (PBS containing 0.05% v/v Tween 20), a blocking buffer (PBS containing 2% bovine serum albumin) was added for blocking at 37° C. for 2 h. After the 96-well plate was washed with the washing buffer, 100 μL of the gradient diluted anti-IL-36R antibody of the present disclosure or the reference antibody BI655130 (the initial concentration of the antibody was 66 nM, 4-fold gradient dilution) was added to each well, and the plate was incubated at room temperature for 1 h. After the 96-well plate was washed with the washing buffer, 100 μL of horseradish peroxidase-conjugated recombinant protein A/G (TheroScientific, 32490) was added to each well, and the plate was incubated at room temperature for 1 h. After the 96-well plate was washed with the washing buffer, 100 μL of a TMB solution (Thermo, 00-4201-56) was added to each well, and the plate was incubated at room temperature for 2 min. Finally, 100 μL of a stop solution (2 N H₂SO₄) was added to each well to stop the reaction. Absorbance was read at 450 nm using a microplate reader (PE, Envision), the resulting data was analyzed using GraphPad Prism, and EC₅₀ was calculated. Binding EC₅₀ of the chimeric anti-IL-36R antibodies to hIL-36R in an ELISA assay is shown in FIG. 1. and binding EC₅₀ of the chimeric anti-IL-36R antibodies to CynoIL-36R in an ELISA assay is shown in FIG. 2. The binding of BI655130 is shown as a control, and the binding of IgG4 is shown as a negative control.

[2] = molecular target: T2, IL-36R naturally expressed on OVCAR8 …; assay: cell-based or functional assay
[3] = molecular target: T3, human IL-36R overexpressed on …; assay: cell-based or functional assay
[4] = molecular target: T4, Human IL-1Rrp2/IL-1R6 protein, His Tag …; assay: ELISA, plate coated with human IL-1Rrp2/IL-1R6 His Tag, HRP-protein A/G, OD450
Method: as §1

Row | EC50 [1] [nM] | IC50 (M); hIL36α; IL-8 production [2] [M] | IC50 (M); hIL36αβγ; IL-8 production [2] [M] | IC50 (M); hIL36β; IL-8 production [2] [M] | IC50 (M); hIL36γ; IL-8 production [2] [M] | Maximum inhibition rate %; hIL36α; IL-8 production [2] [%] | Maximum inhibition rate %; hIL36αβγ; IL-8 production [2] [%] | Maximum inhibition rate %; hIL36β; IL-8 production [2] [%] | Maximum inhibition rate %; hIL36γ; IL-8 production [2] [%] | IC50 (M); hIL36α; NFκB-luciferase [3] [M] | IC50 (M); hIL36αβγ; NFκB-luciferase [3] [M] | IC50 (M); hIL36β; NFκB-luciferase [3] [M] | IC50 (M); hIL36γ; NFκB-luciferase [3] [M] | Maximum inhibition rate %; hIL36α; NFκB-luciferase [3] [%] | Maximum inhibition rate %; hIL36αβγ; NFκB-luciferase [3] [%] | Maximum inhibition rate %; hIL36β; NFκB-luciferase [3] [%] | Maximum inhibition rate %; hIL36γ; NFκB-luciferase [3] [%] | EC50 [4] [nM] | Binder
1 | 1.97 | 6.33e-11 | 7.27e-11 | 3.29e-11 | 2.63e-11 | 101 | 90.7 | 97.1 | 107 | 6.09e-09 | 2.36e-08 | 2.45e-09 | ~1.32e-08 | 84.5 | 81.2 | 86.7 | 79.2 | 0.764 | BI655130 (antibody, human IgG1, kappa, L234A L235A, also called Spesolimab) heavy: not shown light: QIVLTQSPGTLSLSPGERATMTCTASSSVSSSYFHWYQQKPGQAPRLWIYRTSRLASGVPDRFSGSGSGTDFTLTISRLEPEDAATYYCHQFHRSPLTFGAGTKLEIKRTVAAPSVFIFPPSDEQLKSGTASVVCLLNNFYPREAKVQWKVDNALQSGNSQESVTEQDSKDSTYSLSSTLTLSKADYEKHKVYACEVTHQGLSSPVTKSFNRGEC
2 | 4.26 | – | – | – | – | – | – | – | – | 1.04e-08 | ~4.15e-08 | 5.07e-09 | 2.18e-08 | 101 | 86.7 | 96.9 | 98.4 | 5.02 | hz72C1-1.2 (antibody, human IgG4 S228P, kappa, Humanized, human IgG4 / kappa) heavy: not shown light: DIQMTQSPSSLSASVGDRVTITCRASSNVRYMYWYQQKPGKAPKLWIYLTSNLASGVPSRFSGSGSGTSYTLTISSLQPEDFATYYCQQFTTSPYTFGQGTKLEIKRTVAAPSVFIFPPSDEQLKSGTASVVCLLNNFYPREAKVQWKVDNALQSGNSQESVTEQDSKDSTYSLSSTLTLSKADYEKHKVYACEVTHQGLSSPVTKSFNRGEC
3 | 10.5 | – | – | – | – | – | – | – | – | 9.83e-09 | 6.62e-08 | 5.08e-09 | 3.72e-08 | 87.9 | 70.5 | 92.3 | 85.4 | 9.35 | hz72C1-2.1 (antibody, human IgG4 S228P, kappa, Humanized, human IgG4 / kappa) heavy: not shown light: DIQMTQSPSSLSASVGDRVTITCRASSNVRYMYWYQQKPGKAPKLWIYLTSNLASGVPSRFSGSGSGTSYTLTISSLQPEDFATYYCQQYTTSPYTFGQGTKLEIKRTVAAPSVFIFPPSDEQLKSGTASVVCLLNNFYPREAKVQWKVDNALQSGNSQESVTEQDSKDSTYSLSSTLTLSKADYEKHKVYACEVTHQGLSSPVTKSFNRGEC
4 | 4.87 | – | – | – | – | – | – | – | – | 1.61e-08 | ~4.44e-08 | 4.66e-09 | 3.68e-08 | 92 | 77.9 | 94.7 | 87.9 | 4.88 | hz72C1-2.2 (antibody, human IgG4 S228P, kappa, Humanized, human IgG4 / kappa) heavy: not shown light: DIQMTQSPSSLSASVGDRVTITCRASSNVRYMYWYQQKPGKAPKLWIYLTSNLASGVPSRFSGSGSGTSYTLTISSLQPEDFATYYCQQYTTSPYTFGQGTKLEIKRTVAAPSVFIFPPSDEQLKSGTASVVCLLNNFYPREAKVQWKVDNALQSGNSQESVTEQDSKDSTYSLSSTLTLSKADYEKHKVYACEVTHQGLSSPVTKSFNRGEC
5 | 2.73 | – | – | – | – | – | – | – | – | 9.56e-09 | 5.27e-08 | 3.07e-09 | 2.82e-08 | 99.6 | 109 | 94.6 | 98.1 | 2.94 | hz72C1-1.1 (antibody, human IgG4 S228P, kappa, Humanized, human IgG4 / kappa; also called humanized 72C1 antibody 1.1) heavy: not shown light: DIQMTQSPSSLSASVGDRVTITCRASSNVRYMYWYQQKPGKAPKLWIYLTSNLASGVPSRFSGSGSGTSYTLTISSLQPEDFATYYCQQFTTSPYTFGQGTKLEIKRTVAAPSVFIFPPSDEQLKSGTASVVCLLNNFYPREAKVQWKVDNALQSGNSQESVTEQDSKDSTYSLSSTLTLSKADYEKHKVYACEVTHQGLSSPVTKSFNRGEC
6 | 2.86 | – | – | – | – | – | – | – | – | 6.82e-09 | 4.03e-08 | 3.88e-09 | 1.88e-08 | 98.7 | 90.1 | 96.7 | 101 | 2.86 | hz72C1-1.3 (antibody, human IgG4 S228P, kappa, Humanized, human IgG4 / kappa) heavy: not shown light: DIQMTQSPSSLSASVGDRVTITCRASSNVRYMYWYQQKPGKAPKLWIYLTSNLASGVPSRFSGSGSGTSYTLTISSLQPEDFATYYCQQFTTSPYTFGQGTKLEIKRTVAAPSVFIFPPSDEQLKSGTASVVCLLNNFYPREAKVQWKVDNALQSGNSQESVTEQDSKDSTYSLSSTLTLSKADYEKHKVYACEVTHQGLSSPVTKSFNRGEC
7 | 6.38 | – | – | – | – | – | – | – | – | 1.61e-08 | ~1.39e-08 | 2.93e-09 | 2.94e-08 | 90.8 | 66.3 | 83.7 | 89 | 8.9 | hz72C1-2.3 (antibody, human IgG4 S228P, kappa, Humanized, human IgG4 / kappa) heavy: not shown light: DIQMTQSPSSLSASVGDRVTITCRASSNVRYMYWYQQKPGKAPKLWIYLTSNLASGVPSRFSGSGSGTSYTLTISSLQPEDFATYYCQQYTTSPYTFGQGTKLEIKRTVAAPSVFIFPPSDEQLKSGTASVVCLLNNFYPREAKVQWKVDNALQSGNSQESVTEQDSKDSTYSLSSTLTLSKADYEKHKVYACEVTHQGLSSPVTKSFNRGEC
